Source: patent USRE39849 (CHEMOCENTRYX, dated 2007)

B1: human SLC (secondary lymphoid-tissue chemokine) (ligand, UniProt O00585 24-134, looked up)
chain: SDGGAQDCCLKYSQRKIPAKVVRSYRKQEPSLGCSIPAILFLPRKRSQAELCADPKELWVQQLMQHLDKTPSPQKPAQGCRKDRGASKTGKKGKGSKGCKRTERSQTPKGP
notes: also called 6Ckine; soluble SLC
B2: human TECK (thymus expressed chemokine) (ligand, UniProt O15444 24-150, looked up)
chain: QGVFEDCCLAYHYPIGWAVLRRAWTYRIQEVSGSCNLPAAIFYLPKRHRKVCGNPKSREVQRAMKLLDARNKVFAKLHHNTQTFQAGPHAVKKLSSGNSKLSSSKFSNPISSSKRNVSLLISANSGL
notes: also called soluble TECK; cold TECK
B3: murine TECK (ligand, UniProt O35903 24-144, looked up)
chain: QGAFEDCCLGYQHRIKWNVLRHARNYHQQEVSGSCNLRAVRFYFRQKVVCGNPEDMNVKRAMRILTARKRLVHWKSASDSQTERKKSNHMKSKVENPNSTSVRSATLGHPRMVMMPRKTNN
notes: also called murine version of TECK
B4: mMIP-1 gamma (murine macrophage inflammatory protein-1 gamma) (ligand, UniProt P51670 22-122, looked up)
chain: QITHATETKEVQSSLKAQQGLEIEMFHMGFQDSSDCCLSYNSRIQCSRFIGYFPTSGGCTRPGIIFISKRGFQVCANPSDRRVQRCIERLEQNSQPRTYKQ
notes: also called mMIP-1γ; CCF18
B5: human ELC (EBI1 ligand chemokine) (ligand, UniProt Q99731 22-98, looked up)
chain: GTNDAEDCCLSVTQKPIPGYIVRNFHYLLIKDGCRVPAVVFTTLRGRQLCAPPDQPWVERIIQRLQRTSAKMKRRSS
notes: also called MIP-3beta; MIP3beta
B6: murine ELC (ligand, UniProt O70460 26-108, looked up)
chain: GANDAEDCCLSVTQRPIPGNIVKAFRYLLNEDGCRVPAVVFTTLRGYQLCAPPDQPWVDRIIRRLKKSSAKNKGNSTRRSPVS
notes: also called murine version of ELC
B7: murine CTACK (ligand, UniProt Q9Z1X0 26-120, looked up)
chain: LPLPSSTSCCTQLYRQPLPSRLLRRIVHMELQEADGDCHLQAVVLHLARRSVCVHPQNRSLARWLERQGKRLQGTVPSLNLVLQKKMYSHPQQQN
notes: also called mCTACK; CCL27

What was measured:
[1] = target: T1, human CCX CKR with N-terminal Flag epitope, stably expressed on HEK293 cells (human, UniProt Q9NPB9 1-350); test: displacement of 125I-ELC (or 125I-TECK) from CCX CKR stable transfectants, cold chemokine at 200 nM
T1 construct: also called HEK293-CCX CKR cells
T1 sequence: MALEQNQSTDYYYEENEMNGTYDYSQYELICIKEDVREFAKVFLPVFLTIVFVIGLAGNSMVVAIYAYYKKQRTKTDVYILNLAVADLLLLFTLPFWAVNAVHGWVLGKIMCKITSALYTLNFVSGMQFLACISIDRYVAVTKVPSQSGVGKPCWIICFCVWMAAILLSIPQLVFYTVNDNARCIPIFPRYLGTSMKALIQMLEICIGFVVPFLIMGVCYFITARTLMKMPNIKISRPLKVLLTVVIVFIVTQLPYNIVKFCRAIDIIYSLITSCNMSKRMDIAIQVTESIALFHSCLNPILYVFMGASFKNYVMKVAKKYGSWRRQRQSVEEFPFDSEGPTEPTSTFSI

[2] = target: T1, human CCX CKR with N-terminal Flag …; test: radioligand binding competition on CCX CKR stable transfectants
[3] = target: T1, human CCX CKR with N-terminal Flag …; test: radioligand binding competition on CCX CKR stable transfectants (similar experiments, not shown)

Binder | binding result [1] | other results
B1 | binds | 
B2 | binds | 
B3 | binds | 
B4 | binds | 
B5 |  | binding result [2]: binds
B6 |  | binding result [2]: binds
B7 |  | Kd [3]: ~9 nM
